Data from patent US20250206836A1 (ONA THERAPEUTICS S L, published 2025).
One block for each binder: values may come before it.

Key:
[1] = target: T1, human CD36 (on HEK 293 or SCC25 cells) (human, UniProt P16671 2-472); assay: cell-based or functional assay
human CD36 (His-tagged) = target: T2, human CD36 (His-tagged) (human, UniProt P16671 30-439); assay: SPR (Biacore T200), His-captured CD36, bivalent analyte model
T2 construct: not shown: His tag

[2] = target: T1, human CD36 (on HEK 293 or SCC25 cells); assay: FACS, SCC25 cells stably overexpressing human CD36
[3] = target: T1, human CD36 (on HEK 293 or SCC25 cells); assay: cell-based or functional assay; remark: listed apart in the source
[4] = target: T1, human CD36 (on HEK 293 or SCC25 cells); assay: FACS, HEK 293 cells transiently overexpressing human CD36
Description: After incubation with the cells, an anti-human fluorescently labelled antibody was added to the cell media, allowed to incubate further, and the unbound antibody was washed off of the cells. Subsequently, the cells were subjected to FACS analysis to determine antibody binding to the cells. The results were fitted to a sigmoidal titration curve. Using a nonlinear regression model, the EC₅₀ values for each antibody were calculated from the GeoMFI and MFI values using the log(agonist) versus response (four parameters) fitting on the data transformed according to X=Log[X] in GraphPad PRISM.
After transiently transfecting the HEK 293 cells with a CD36 expression construct, cells were treated with three-fold serial dilution of each candidate antibody (10 dilutions starting at 500 nM). […] Antibody binding to cells was measured by FACS as above.

[5] = target: T1, human CD36 (on HEK 293 or SCC25 cells); assay: cell-based or functional assay; remark: listed apart in the source
[6] = target: T3, mouse CD36 (on HEK 293 cells) (mouse, UniProt Q08857 1-472); assay: FACS, HEK 293 cells transiently overexpressing CD36;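 also: antibody binding to transfected cells detected by flow cytometry with a fluorescent anti-human secondary antibody, EC50 from a four-parameter sigmoidal fit of mean fluorescence intensity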
T3 construct: also called Murine CD36
Description: (§1) After transiently transfecting the HEK 293 cells with a CD36 expression construct, cells were treated with three-fold serial dilution of each candidate antibody (10 dilutions starting at 500 nM). […] After incubation with the cells, an anti-human fluorescently labelled antibody was added to the cell media, allowed to incubate further, and the unbound antibody was washed off of the cells. Subsequently, the cells were subjected to FACS analysis to determine antibody binding to the cells. The results were fitted to a sigmoidal titration curve. Using a nonlinear regression model, the EC₅₀ values for each antibody were calculated from the GeoMFI and MFI values using the log(agonist) versus response (four parameters) fitting on the data transformed according to X=Log[X] in GraphPad PRISM.

[7] = target: T1, human CD36 (on HEK 293 or SCC25 cells); assay: as above
Description: as §1

[8] = target: T4, nonhuman primate CD36 (on HEK 293 cells) (cynomolgus monkey / rhesus macaque, UniProt P16671 2-472 (human entry)); assay: as above
T4 construct: also called non-human primate CD36 (cynomolgus)
Description: as §1

[9] = target: T5, purified biotin-tagged human CD36 (human, UniProt P16671 30-439, limits assumed, biotin tag, site not stated); assay: AlphaScreen competition; competitor 1G04 on acceptor beads;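 also: streptavidin donor beads excited at 680 nm release singlet oxygen, and the light signal needs a nearby acceptor bead, with 30 min donor-bead incubation at 25 °C in the dark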
[10] = target: T5, purified biotin-tagged human CD36; assay: AlphaScreen competition; competitor 11G04 on acceptor beads
Description: This was done using the AlphaScreen® bead-based microplate assay. […] AlphaLISA® Streptavidin Donor Beads were then added and the mix incubated for 30 min at 25° C. in the dark. The donor bead contains a photosensitizer, which upon excitation by light at 680 nm, converts oxygen (O₂) into an excited form, singlet oxygen. Singlet oxygen molecules have a reduced lifetime (4 microseconds half-life) and can diffuse approximately 200 nm in solution before falling back to ground state. In the absence of acceptor beads, the singlet oxygen molecules fall back to ground state without producing any light signal.
For Percent Fatty Acid Uptake Inhibition in this document: test concentration or dose not given here.

T3 sequence (Q08857 whole entry): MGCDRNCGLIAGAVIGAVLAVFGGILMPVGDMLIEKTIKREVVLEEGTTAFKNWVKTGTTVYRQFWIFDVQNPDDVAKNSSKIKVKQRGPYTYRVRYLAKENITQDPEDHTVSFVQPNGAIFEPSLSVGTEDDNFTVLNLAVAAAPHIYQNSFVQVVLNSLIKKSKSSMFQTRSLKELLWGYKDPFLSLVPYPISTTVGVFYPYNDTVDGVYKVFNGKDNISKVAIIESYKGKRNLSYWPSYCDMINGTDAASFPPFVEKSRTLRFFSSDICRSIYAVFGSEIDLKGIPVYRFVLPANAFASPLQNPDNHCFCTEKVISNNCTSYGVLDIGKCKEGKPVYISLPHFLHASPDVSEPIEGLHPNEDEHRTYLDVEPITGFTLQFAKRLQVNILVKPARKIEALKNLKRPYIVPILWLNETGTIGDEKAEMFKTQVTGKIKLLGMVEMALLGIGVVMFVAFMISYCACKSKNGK
T5 sequence (P16671 30-439 limits assumed): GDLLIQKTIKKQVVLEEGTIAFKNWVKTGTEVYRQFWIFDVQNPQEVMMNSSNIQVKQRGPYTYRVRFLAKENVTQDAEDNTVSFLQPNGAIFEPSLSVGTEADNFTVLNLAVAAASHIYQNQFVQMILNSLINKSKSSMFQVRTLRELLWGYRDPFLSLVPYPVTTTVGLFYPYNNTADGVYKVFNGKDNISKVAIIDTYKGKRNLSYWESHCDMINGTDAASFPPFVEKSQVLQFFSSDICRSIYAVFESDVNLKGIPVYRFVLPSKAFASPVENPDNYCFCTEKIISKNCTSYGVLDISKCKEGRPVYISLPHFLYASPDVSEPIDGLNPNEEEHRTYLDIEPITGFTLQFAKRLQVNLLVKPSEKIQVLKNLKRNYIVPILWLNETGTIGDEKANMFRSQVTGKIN
T2 sequence (P16671 30-439 limits assumed): as above
T1 sequence (P16671 2-472 limits assumed): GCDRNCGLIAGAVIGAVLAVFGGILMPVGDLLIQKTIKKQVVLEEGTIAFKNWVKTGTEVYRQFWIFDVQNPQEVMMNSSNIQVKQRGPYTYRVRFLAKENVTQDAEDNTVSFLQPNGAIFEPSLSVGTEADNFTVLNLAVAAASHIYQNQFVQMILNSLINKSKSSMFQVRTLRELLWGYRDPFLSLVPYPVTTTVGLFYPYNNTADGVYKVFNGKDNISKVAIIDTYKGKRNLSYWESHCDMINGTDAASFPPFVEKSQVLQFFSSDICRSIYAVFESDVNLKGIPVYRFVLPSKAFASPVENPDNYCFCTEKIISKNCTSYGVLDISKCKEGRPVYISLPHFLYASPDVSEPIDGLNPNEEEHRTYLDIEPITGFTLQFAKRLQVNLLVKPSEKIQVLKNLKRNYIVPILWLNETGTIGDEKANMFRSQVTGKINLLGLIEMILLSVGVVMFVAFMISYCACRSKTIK
T4 sequence (P16671 other isoform, or with tags, fused parts or gaps limits assumed): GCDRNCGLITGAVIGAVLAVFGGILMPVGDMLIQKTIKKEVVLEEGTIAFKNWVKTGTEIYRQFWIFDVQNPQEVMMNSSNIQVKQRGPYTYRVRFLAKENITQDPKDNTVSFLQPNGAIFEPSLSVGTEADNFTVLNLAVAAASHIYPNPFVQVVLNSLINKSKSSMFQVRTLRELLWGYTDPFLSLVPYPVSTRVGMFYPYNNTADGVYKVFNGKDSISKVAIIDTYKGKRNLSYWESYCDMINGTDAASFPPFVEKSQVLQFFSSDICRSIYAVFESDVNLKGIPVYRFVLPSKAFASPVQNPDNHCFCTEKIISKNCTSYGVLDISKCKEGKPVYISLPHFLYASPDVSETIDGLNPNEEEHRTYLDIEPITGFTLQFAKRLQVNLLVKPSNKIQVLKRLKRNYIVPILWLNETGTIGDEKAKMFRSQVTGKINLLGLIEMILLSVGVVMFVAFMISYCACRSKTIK

B1: 11G04 (antibody, human IgG1, V domains shown)
VH: EVQLQQSGAELVRPGASVTLSCKASGYRFSDYEMQWVKQTPVHGLEWIGGIDPETGGIAYNQKFKVKATLTADKSSSTAFMELRSLTSEDSAVYYCTRKLDFDYWGQGTTLTVSS
VL: ETTVTQSPASLSVATGEKVTIRCITSTDIDDDMNWYQQKPGEPPKLLISEGNTLRPGVPSRFSSSGYGTDFVFTIENMLSEDVADYYCLQSDNLPLTFGAGTKLELK
notes: Chimeric: mouse variable regions on human IgG1 LALA (L234A/L235A); also called 011G04
IC50 of fatty acid uptake inhibition (BODIPY FL C16, HEK hCD36 cells) [1]: 0.07 nM | Kd (human CD36 (His-tagged)): 19 nM | koff (human CD36 (His-tagged)): 0.022 s⁻¹ | kon (human CD36 (His-tagged)): 1.2e+06 M⁻¹ s⁻¹ | EC50 [2]: 0.46 nM | IC50 of oxLDL uptake inhibition (DiI-oxLDL, SCC25 cells) [3]: 1.17 nM | EC50 [4]: 0.49 nM | Percent Fatty Acid Uptake Inhibition [5]: 41.6% | EC50 [6]: 11.2 nM | EC50 [7]: 0.45 nM | EC50 [8]: 8.93 nM

B4: 33G04 (antibody, human IgG1, V domains shown)
VH: AVTLDESGGGLQTPGGALSLVCKASGFDFSSYAMGWVRQAPGKGLEWVAGKAKDGGGTAYGSAVKGRATISRDNGQSTVRLQLSNLRAEDTGVYYCAKSAYGDWFYGSSGPYADSIDAWGHGTEVIVSS
VL: ALTQPSSVSASPGETVKITCSGSSDSWYGWYQQKSPGSALVTVIYDSTNRPSSIPSRFSGSTSGSTGTLTITGVRADDEAVYFCGSFDSSTDSTAFGAGTTLTVL
notes: Chimeric: chicken variable regions on human IgG1 LALA (L234A/L235A); also called 033G04
IC50 of fatty acid uptake inhibition (BODIPY FL C16, HEK hCD36 cells) [1]: 0.1 nM | IC50 of oxLDL uptake inhibition (DiI-oxLDL, SCC25 cells) [3]: 0.28 nM | EC50 [9]: 1.58 nM | EC50 [10]: 3.68 nM | EC50 [6]: 4.33 nM | EC50 [7]: 0.31 nM | EC50 [8]: 0.52 nM

B5: 34G04 (antibody, human IgG1, V domains shown)
VH: B4 VH
VL: ALTQPSSVSANPGETVKITCSGGDNYAGSYYYGWYQQKSPGSAPVTVIYDDTNRPADIPSRFSGSTSGSTNTLTITGVRAEDEAVYFCGGWDSINDRNIFGAGTTLTVL
notes: Chimeric: chicken variable regions on human IgG1 LALA (L234A/L235A); also called 034G04
IC50 of fatty acid uptake inhibition (BODIPY FL C16, HEK hCD36 cells) [1]: 0.2 nM | IC50 of oxLDL uptake inhibition (DiI-oxLDL, SCC25 cells) [3]: 1.06 nM | EC50 [9]: 2.47 nM | EC50 [10]: 4.82 nM | EC50 [6]: 6.75 nM | EC50 [7]: 0.56 nM | EC50 [8]: 1.4 nM

Stronger by EC50 [6], values ahead:

IC50 of fatty acid uptake inhibition (BODIPY FL C16, HEK hCD36 cells) [1]: 0.3 nM | IC50 of oxLDL uptake inhibition (DiI-oxLDL, SCC25 cells) [3]: 1.14 nM | EC50 [9]: 9.91 nM | EC50 [10]: 3.3 nM | EC50 [6]: 2.29 nM | EC50 [7]: 0.62 nM | EC50 [8]: 1.45 nM
B3: 37G04 (antibody, human IgG1, V domains shown)
VH: AVTLDESGGGLQTPGGALSLVCKASGFTFSDYDMLWVRQAPGKGLEFVAGINAASTYTDYGAAVKGRATISRDNGQSTVRLQVNNLRAEDTGTYYCAKSSYGGGWSDVGSIDAWGHGTEVIVSS
VL: ALTQPSSVSANPGETVKITCSGDRSYYGYGWYQQKAPGSAPVTVIYWDDKRPSDIPSRFSGSTSGSTATLTITGVQAEDEAVYFCGNMDSSYVGMFGAGTTLTVL
notes: Chimeric: chicken variable regions on human IgG1 LALA (L234A/L235A); also called 037G04

IC50 of fatty acid uptake inhibition (BODIPY FL C16, HEK hCD36 cells) [1]: 0.04 nM | IC50 of oxLDL uptake inhibition (DiI-oxLDL, SCC25 cells) [3]: 0.11 nM | EC50 [9]: 0.66 nM | EC50 [10]: 1.35 nM | EC50 [6]: 2.25 nM | EC50 [7]: 0.63 nM | EC50 [8]: 0.59 nM
B6: 35G04 (antibody, human IgG1, V domains shown)
VH: AVTLDESGGGLQTPGGALSLVCKASGFTFSNYGMGWMRQAPGKGLEFVAKIYKDGGYTGYGAAVDGRATISRDDGQSTVRLQLNDLRAEDTATYFCAKAADSGYLYITDSIDAWGHGTEVIVSS
VL: ALTQPSSVSANPGETVKITCSGGSGSYGWFQQKSPGNAPVTVIYHNDQRPSDIPSRFSGSKSGSTATLTITEVQADDEAVYVCGGYDNDNDAGIFGAGTTLTVL
notes: Chimeric: chicken variable regions on human IgG1 LALA (L234A/L235A); also called 035G04

IC50 of fatty acid uptake inhibition (BODIPY FL C16, HEK hCD36 cells) [1]: 0.81 nM | IC50 of oxLDL uptake inhibition (DiI-oxLDL, SCC25 cells) [3]: 0.09 nM | EC50 [9]: 0.57 nM | EC50 [10]: 1.04 nM | EC50 [6]: 0.66 nM | EC50 [7]: 0.33 nM | EC50 [8]: 0.29 nM
B2: 36G04 (antibody, human IgG1, V domains shown)
VH: AVTLDESGGGLQTPGGALSLVCKASGFIFSSYGMGWVRQAPGKGLEYIAAISNDGSKADYGAAVKGRATISRDNGQSTVRLQLNNLRAEDTATYYCAKSADTGYCSWSACIADSIDAWGHGTEVIVSS
VL: ALTQPSSVSAIPGETVKITCSGGGSDYGWYQQKSPGSAPVTVIYWSDNRPSNIPSRFSGSESGSTATLTITGVRAEDEAVYFCGGYDSSGSGMFGAGTTLTVL
notes: Chimeric: chicken variable regions on human IgG1 LALA (L234A/L235A); also called 036G04
